Results taken from patent US20140220004A1.

Molecular target: human transient receptor potential cation channel, subfamily A, member 1 (hTRPA1) (human) (UniProt O75762)
Assay: cell-based or functional assay

UniProt O75762, sequence (O75762 whole entry): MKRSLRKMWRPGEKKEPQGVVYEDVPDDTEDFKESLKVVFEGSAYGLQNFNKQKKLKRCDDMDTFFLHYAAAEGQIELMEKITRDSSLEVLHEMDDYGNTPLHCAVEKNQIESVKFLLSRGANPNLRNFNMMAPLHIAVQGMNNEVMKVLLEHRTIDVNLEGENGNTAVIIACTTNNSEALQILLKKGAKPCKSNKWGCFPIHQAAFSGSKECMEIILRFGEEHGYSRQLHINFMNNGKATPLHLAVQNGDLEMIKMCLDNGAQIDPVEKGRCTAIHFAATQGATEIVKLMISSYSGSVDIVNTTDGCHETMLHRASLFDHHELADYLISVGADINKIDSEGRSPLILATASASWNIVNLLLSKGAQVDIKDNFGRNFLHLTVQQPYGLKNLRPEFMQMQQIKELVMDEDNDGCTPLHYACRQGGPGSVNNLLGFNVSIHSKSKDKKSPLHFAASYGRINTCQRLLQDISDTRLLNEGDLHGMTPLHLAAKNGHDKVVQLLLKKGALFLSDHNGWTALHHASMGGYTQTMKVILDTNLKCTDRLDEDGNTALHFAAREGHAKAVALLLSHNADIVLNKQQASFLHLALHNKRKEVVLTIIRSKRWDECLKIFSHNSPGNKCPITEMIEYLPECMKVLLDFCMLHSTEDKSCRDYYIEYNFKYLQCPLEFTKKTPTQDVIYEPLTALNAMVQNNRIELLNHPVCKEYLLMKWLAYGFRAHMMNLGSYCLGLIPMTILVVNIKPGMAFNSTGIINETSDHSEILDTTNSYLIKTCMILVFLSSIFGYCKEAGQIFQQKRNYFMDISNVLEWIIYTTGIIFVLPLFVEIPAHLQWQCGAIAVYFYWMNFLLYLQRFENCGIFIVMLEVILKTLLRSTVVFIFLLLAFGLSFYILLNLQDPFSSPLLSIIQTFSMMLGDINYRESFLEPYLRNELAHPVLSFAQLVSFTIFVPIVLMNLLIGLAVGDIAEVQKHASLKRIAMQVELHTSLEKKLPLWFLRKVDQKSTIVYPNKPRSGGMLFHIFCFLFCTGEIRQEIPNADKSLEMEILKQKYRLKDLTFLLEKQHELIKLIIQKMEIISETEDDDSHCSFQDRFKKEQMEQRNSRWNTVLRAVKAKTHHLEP

calcium flux in HEK cells transfected to express human TRPA1 (EC50): 200 nM
Substance: rabbit metallothionein 2 A isoform containing 7 zinc atoms (rabbit Zn7-MT2A) (Bestenbalt LLC, Estonia) (from UniProt P18055 1-62) (ligand)
